{"source": "patent US6641994B2", "about": "“Methods of identifying anti-viral agents” (Pharmacia & Upjohn Company, priority 1999, dated 2003)", "key": {"cyclin A/CDK2": {"target": "T1, cyclin A/CDK2 (Homo sapiens, UniProt P20248+P24941)", "T1 construct": "hemagglutinin (HA); made in house; host or cells: Sf9 or High Five insect cells, baculovirus co-infection", "T1 sequence (P20248 whole entry, one chain of several)": "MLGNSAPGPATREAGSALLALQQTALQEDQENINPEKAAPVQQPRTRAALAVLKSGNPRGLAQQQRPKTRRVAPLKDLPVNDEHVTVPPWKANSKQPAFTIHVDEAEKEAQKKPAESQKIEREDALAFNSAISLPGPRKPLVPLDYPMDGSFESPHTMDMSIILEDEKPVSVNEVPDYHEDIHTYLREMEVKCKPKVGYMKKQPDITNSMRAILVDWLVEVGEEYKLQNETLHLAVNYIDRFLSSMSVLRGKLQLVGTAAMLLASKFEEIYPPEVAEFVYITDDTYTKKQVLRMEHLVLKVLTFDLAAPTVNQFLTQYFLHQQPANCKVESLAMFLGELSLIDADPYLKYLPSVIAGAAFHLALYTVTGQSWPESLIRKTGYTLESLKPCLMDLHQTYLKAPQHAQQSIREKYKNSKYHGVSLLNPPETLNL", "type": "biochemical"}, "CDK2 [1]": {"target": "T2, CDK2 (Homo sapiens, UniProt P20248+P24941)", "T2 construct": "hemagglutinin (HA); made in house; host or cells: Sf9 or High Five insect cells, baculovirus co-infection", "T2 sequence (P20248 whole entry, one chain of several)": "as above", "type": "biochemical"}, "CDK2 [2]": {"system": "CDK2", "experiment": "Effect of E7 on p21/p27 inhibition of CDK2 kinase activity", "type": "biochemical", "method": "Histone H1 was chosen as the substrate in the kinase assays since pRb, a physiological CDK2 substrate, is known to bind E7 and could interfere with the assay.\nFor some assays, HEK293 cell lysate (100 μg total protein, prepared as described above) was preincubated with purified GST-31E7 protein in PBS in the presence of p13 agarose beads (Calbiochem) at 4° C. for one hour, and subsequently incubated with purified His-p27 for 30 min at 4° C. Preincubation was carried out to permit protein complex formation, while p13 agarose beads bind cyclin-dependent kinase complexes to facilitate purification [Dreatta, et al., Cell 56:829-838 (1989)]. After collection and washing four times with PBS, the beads were washed two additional times with KIP buffer containing 50 mM Tris-Cl, pH 7.5, 10 mM MgCl2, 5 mM EGTA, 2 mM DTT, and 10 μM ATP. […] Phosphorylated proteins were analyzed by SDS-PAGE followed by autoradiography and PhosphorImager® analysis.\nIn other assays, purified cyclin A- or cyclin E-complexed CDK2 was included. […] Kinase activity was measured following addition of 1 μl of 2 mCi/ml [γ-^32P] […] The reaction was stopped by adding SDS sample buffer, and phosphorylated proteins were analyzed by SDS-PAGE followed by autoradiography and PhosphorImager® analysis."}, "GST-cyclinA": {"target": "T3, GST-cyclinA (Homo sapiens, UniProt P20248)", "T3 construct": "made in house; host or cells: High Five insect cells, baculovirus", "T3 sequence (P20248 whole entry)": "as the sequence (P20248 whole entry, one chain of several) above", "type": "binding", "conditions": "purified HPV16E7 4 μg; SDS-PAGE and immunoblotting"}, "HA-CDK2": {"target": "T4, HA-CDK2 (Homo sapiens, UniProt P24941)", "T4 construct": "made in house; host or cells: High Five insect cells, baculovirus", "type": "binding"}, "cyclin E/CDK2": {"target": "T5, cyclin E/CDK2 (Homo sapiens, UniProt P24941)", "T5 construct": "hemagglutinin (HA); made in house; host or cells: Sf9 or High Five insect cells, baculovirus co-infection", "type": "biochemical"}, "CDK5 complexed with p25": {"target": "CDK5 complexed with p25 (Homo sapiens, UniProt Q00535)", "sequence (Q00535 whole entry)": "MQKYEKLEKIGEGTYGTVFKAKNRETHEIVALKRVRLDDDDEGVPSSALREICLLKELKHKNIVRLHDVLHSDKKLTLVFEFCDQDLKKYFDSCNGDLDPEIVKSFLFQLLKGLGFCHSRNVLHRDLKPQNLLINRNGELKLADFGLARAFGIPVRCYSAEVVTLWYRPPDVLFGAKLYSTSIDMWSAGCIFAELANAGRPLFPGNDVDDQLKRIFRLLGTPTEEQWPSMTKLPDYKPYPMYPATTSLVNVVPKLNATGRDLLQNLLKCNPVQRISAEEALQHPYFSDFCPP", "sequence (Q15078 99-307 partner limits assumed)": "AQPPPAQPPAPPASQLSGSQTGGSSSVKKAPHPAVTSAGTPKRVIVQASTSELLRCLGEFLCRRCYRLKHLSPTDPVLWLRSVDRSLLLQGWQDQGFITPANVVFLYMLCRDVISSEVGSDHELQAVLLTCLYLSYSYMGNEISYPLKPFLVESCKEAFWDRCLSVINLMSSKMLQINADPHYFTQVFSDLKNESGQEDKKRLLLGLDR", "experiment": "Kinase assay CDK5/p25, histone H1 phosphorylation", "type": "biochemical", "conditions": "over controls"}, "MAP kinase 1": {"system": "MAP kinase 1", "experiment": "Kinase assay MAP kinase 1", "type": "biochemical", "method": "(§1) In an attempt to determine if the E7 effects on kinase activity were specific for members of the cyclin-dependent kinase family, various kinase/substrate combinations were examined for enhanced activity in the presence of E7.\n(§2) When HPV16-E7 was added to either cyclinA/CDK2 or cyclinE/CDK2 using histoneH1 as the substrate, a large increase (26-fold and 13-fold) over controls was noted as described above. When the retinoblastoma (pRb) protein was used as a substrate for cyclinE/CDK2 a 1.9-fold increase over background was noted."}, "CDC2/cyclinB": {"target": "CDC2/cyclinB (Homo sapiens, UniProt P06493)", "sequence (P06493 whole entry, species assumed)": "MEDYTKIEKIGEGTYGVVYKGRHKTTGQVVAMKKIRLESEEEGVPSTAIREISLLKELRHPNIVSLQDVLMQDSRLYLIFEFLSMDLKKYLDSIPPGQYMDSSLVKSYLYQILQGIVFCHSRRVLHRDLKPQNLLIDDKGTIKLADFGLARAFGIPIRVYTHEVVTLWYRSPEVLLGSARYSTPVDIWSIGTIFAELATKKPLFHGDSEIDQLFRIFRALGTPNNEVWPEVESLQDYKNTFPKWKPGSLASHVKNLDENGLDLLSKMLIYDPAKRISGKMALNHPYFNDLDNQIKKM", "sequence (P14635 whole entry partner, species assumed)": "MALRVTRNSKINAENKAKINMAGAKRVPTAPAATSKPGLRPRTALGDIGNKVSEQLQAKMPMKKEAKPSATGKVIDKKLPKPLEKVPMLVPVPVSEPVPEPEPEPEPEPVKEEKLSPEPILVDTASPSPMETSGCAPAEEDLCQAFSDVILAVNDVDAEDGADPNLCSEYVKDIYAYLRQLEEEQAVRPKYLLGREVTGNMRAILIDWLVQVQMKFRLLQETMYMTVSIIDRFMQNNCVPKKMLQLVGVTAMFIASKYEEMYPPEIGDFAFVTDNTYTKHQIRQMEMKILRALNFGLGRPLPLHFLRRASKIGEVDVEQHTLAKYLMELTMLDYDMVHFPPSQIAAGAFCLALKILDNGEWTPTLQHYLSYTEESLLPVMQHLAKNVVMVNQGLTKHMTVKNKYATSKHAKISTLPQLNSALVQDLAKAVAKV", "experiment": "Kinase assay CDC2/cyclinB", "type": "biochemical", "method": "as §1, §2"}, "pRb": {"target": "T6, pRb (Homo sapiens, UniProt P06400)", "T6 construct": "purchased QED Bioscience Inc", "T6 sequence (P06400 1-928)": "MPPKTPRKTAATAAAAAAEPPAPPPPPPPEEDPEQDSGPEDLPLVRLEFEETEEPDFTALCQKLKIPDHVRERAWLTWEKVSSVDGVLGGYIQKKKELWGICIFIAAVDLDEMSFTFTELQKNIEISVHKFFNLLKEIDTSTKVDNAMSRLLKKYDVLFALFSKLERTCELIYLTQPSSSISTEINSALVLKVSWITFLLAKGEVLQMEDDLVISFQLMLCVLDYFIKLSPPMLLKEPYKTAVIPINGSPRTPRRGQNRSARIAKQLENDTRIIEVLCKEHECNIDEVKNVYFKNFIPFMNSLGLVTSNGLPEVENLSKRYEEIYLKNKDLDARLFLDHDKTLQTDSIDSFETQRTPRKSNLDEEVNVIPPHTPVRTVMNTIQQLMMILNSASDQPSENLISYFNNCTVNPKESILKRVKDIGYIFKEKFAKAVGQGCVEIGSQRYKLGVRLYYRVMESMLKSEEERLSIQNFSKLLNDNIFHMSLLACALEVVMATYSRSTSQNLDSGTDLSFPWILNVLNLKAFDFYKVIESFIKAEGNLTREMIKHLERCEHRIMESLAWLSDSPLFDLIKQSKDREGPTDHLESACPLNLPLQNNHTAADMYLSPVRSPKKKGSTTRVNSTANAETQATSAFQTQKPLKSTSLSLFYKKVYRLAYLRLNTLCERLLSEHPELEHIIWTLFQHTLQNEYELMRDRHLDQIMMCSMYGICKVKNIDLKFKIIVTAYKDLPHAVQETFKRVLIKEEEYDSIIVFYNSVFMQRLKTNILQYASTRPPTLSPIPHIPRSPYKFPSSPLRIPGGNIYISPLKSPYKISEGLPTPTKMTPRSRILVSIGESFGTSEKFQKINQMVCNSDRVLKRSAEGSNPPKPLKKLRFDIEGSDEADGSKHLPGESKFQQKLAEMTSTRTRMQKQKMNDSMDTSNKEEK", "experiment": "E7 binding assay (GST-E7 on glutathione-agarose beads), pRb", "method": "For HPV31E7, the amplification product was subcloned into pGEX-4T-3 previously digested with BamHI, while HPV6b and HPV16 E7 amplification products were subcloned into pGEX-4T-3 previously digested with BamHI and XhoI. Proper orientation was determined using restriction mapping, sequence analysis was carried out using Perkin-Elmer ABI-Prism® technology, and the expression constructs were individually transfected into a JM 109 strain of E. coli. Bacteria in log-growth phase were harvested by centrifugation after a four hour induction with 0.5 mM IPTG at 30° C. […] After extensive washing with PBS, the GST-E7-coupled beads were stored at 4° C. until use. Protein levels were measured using a BioRad protein assay kit, and purified protein preparations were examined by SDS-PAGE followed by Coomassie blue staining and Western blotting. […]\nGST-16E7 or GST-31E7 fusion proteins bound to glutathione-agarose beads were incubated with either purified pRb (QED Bioscience Inc.), His-p21, His-p21N, His-p21C, His-p27, His-p27N, His-p27C, or HEK293 cell lysate at 4° C. for two hours in binding buffer containing 20 mM HEPES, pH 7.4, 10 mM KCl, 1 mM EDTA, 1 mM EGTA, 140 mM NaCl, 13% glycerol, 1 mM DTT, and 1× protease inhibitor tablet (Boehringer Mannheim). […] Eluted proteins were separated using 15% SDS-PAGE and the proteins were analyzed by Coomassie blue staining and Western blotting."}}, "data": [{"molecule": "E7: HPV E7 protein or GST-E7 fusion, strain not named at the place; b203 used purified HPV16E7", "values": [{"measurement": "phosphorylation of HPV E2 by CDK2/cyclinA", "setting": "cyclin A/CDK2", "result": "enhanced"}, {"measurement": "peak stimulatory activity (concentration)", "setting": "CDK2 [1]", "result": "approximately 0.29 μM"}, {"measurement": "EC50", "setting": "CDK2 [1]; read-out: 50% stimulatory concentration of E7", "result": "~180", "unit": "nM"}, {"measurement": "effect on p21- and p27-dependent inhibition of cyclin E/CDK2 activity", "setting": "CDK2 [2]; histone H1 substrate", "result": "little or no effect"}, {"measurement": "effect on p27 inhibition of CDK2 activity", "setting": "CDK2 [2]; purified cyclin E/CDK2 and cyclin A/CDK2, solution kinase assay", "result": "little or no effect"}, {"measurement": "binding to beads containing GST-cyclinA", "setting": "GST-cyclinA", "result": "binding"}, {"measurement": "binding to beads with immobilized HA-CDK2", "setting": "HA-CDK2", "result": "no binding"}]}, {"molecule": "GST-16E7: HPV16 E7 protein expressed as a glutathione-S-transferase (GST) fusion protein (protein, left off: a dimerising Fc or GST) MHGDTPTLHEYMLDLQPETTDLYCYEQLNDSSEEEDEIDGPAGQAEPDRAHYNIVTFCCKCDSTLRLCVQSTHVDIRTLEDLLMGTLGIVCPICSQKP", "values": [{"measurement": "effect on cyclin A/CDK2 histone H1 kinase activity", "setting": "cyclin A/CDK2", "result": "significant effect"}, {"measurement": "Km", "setting": "cyclin A/CDK2; read-out: Km for histone H1", "result": 1.1, "unit": "µM"}, {"measurement": "increase in cyclinE/CDK2 kinase activity", "setting": "cyclin E/CDK2", "result": 13, "unit": "fold"}, {"measurement": "increase in pRb kinase activity", "setting": "cyclin E/CDK2", "result": 1.9, "unit": "fold"}, {"measurement": "stimulation of cyclin E/CDK2 phosphorylation of MBP-HPV 18 E1 fusion protein", "setting": "cyclin E/CDK2", "result": 2.3, "unit": "fold"}, {"measurement": "increase in H1 phosphorylation by CDK5 complexed with p25", "setting": "CDK5 complexed with p25", "result": 4.5, "unit": "fold"}, {"measurement": "MAP kinase 1 activity", "setting": "MAP kinase 1", "result": "unaffected"}, {"measurement": "CDC2/cyclinB activity", "setting": "CDC2/cyclinB", "result": "unaffected"}]}, {"molecule": "GST-31E7: HPV31 E7 protein expressed as a GST fusion protein (protein, left off: a dimerising Fc or GST) MRGETPTLQDYVLDLQPEATDLHCYEQLPDSSDEEDVIDSPAGQAEPDTSNYNIVTFCCQCKSTLRLCVQSTQVDIRILQELLMGSFGIVCPNCSTRL", "values": [{"measurement": "binding to pRb in HEK 293 cell lysate", "setting": "pRb; HEK 293 cell lysate", "result": "bound"}, {"measurement": "binding to purified pRb", "setting": "pRb; purified pRb, SDS-PAGE, Coomassie and Western blot", "result": "bound"}, {"measurement": "effect on cyclin A/CDK2 histone H1 kinase activity", "setting": "cyclin A/CDK2", "result": "significant effect"}]}]}
